Measured values reported in US20190071480A1 (Biogen, published 2019).
Each block holds one binder with its values, some of them ahead of it. Bridges are numbered along the chain shown (N, C = ends).

Tests used:
[1] = biological target: T1, extracellular domain of activin receptor type IIB (ActRIIBecd), biotinylated (Homo sapiens (Human), UniProt Q13705 27-117, amino-biotinylated with amine-PEG3-Biotin); assay: BIAcore SPR as Example 5 (method not restated); SD ±1.74 nM
T1 construct: immobilised on a streptavidin-coated sensor chip; also called biotinylated ActRIIBecd; extracellular domain of ActRIIB
T1 sequence: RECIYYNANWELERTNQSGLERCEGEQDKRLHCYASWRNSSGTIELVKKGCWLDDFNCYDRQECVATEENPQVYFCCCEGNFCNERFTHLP
Experimental: (§1) Biosensor experiments. In one embodiment, experiments were performed on a BIAcore™ T100/T200 instrument (Pharmacia Biosensor AB) in the multichannel mode (serial flow path involving flow cells 1+2+3+4). Flow rate was 10 μl/min; temperature was 25° C.; and data were recorded at 2.5 points/s. All four segments of a sensor chip CMS were coated with streptavidin (Sigma) to a density of 2000 pg/mm² (2000 resonance units) by the aminocoupling procedure. ActRIIBecd (10 mg) and amine-PEG3-Biotin (10 mg, Pierce, Rockford, Ill.) were dissolved in 200 μl H₂O and 10 mg NaCNBH₃ was added to prepare biotinylated ActRIIBecd. The reaction mixture was heated at 70° C. for 24 h, after that a further 10 mg NaCNBH₃ was added and the reaction was heated at 70° C. for another 24 h. After cooling to room temperature, the mixture was desalted with the spin column (3,000 molecular weight cut off (MWCO)). […] Sensograms were recorded during flow of the analyte (the ActRIIBecd-associated polypeptides (i.e., domains) as previously described) first through flow cell 1 (control) then through flow cell 2 (biotinylated ActRIIBecd). […] The sensograms obtained at 1.11, 3.33, 10, 30, and 90 nM analyte were evaluated for equilibrium binding, association rate, and dissociation rate by using the programs supplied with the instrument (BIA evaluation 2.1; Software Handbook. 1995; Pharmacia Biosensor AB).

[2] = biological target: T1, extracellular domain of activin …; assay: Mean KD column of Table 5; method not restated (BIAcore as Example 5); species also listed in Table 4
Experimental: Biosensor experiments. In one embodiment, experiments were performed on a BIAcore™ T100/T200 instrument (Pharmacia Biosensor AB) in the multichannel mode (serial flow path involving flow cells 1+2+3+4). Flow rate was 10 μl/min; temperature was 25° C.; and data were recorded at 2.5 points/s. All four segments of a sensor chip CMS were coated with streptavidin (Sigma) to a density of 2000 pg/mm² (2000 resonance units) by the aminocoupling procedure. ActRIIBecd (10 mg) and amine-PEG3-Biotin (10 mg, Pierce, Rockford, Ill.) were dissolved in 200 μl H₂O and 10 mg NaCNBH₃ was added to prepare biotinylated ActRIIBecd. The reaction mixture was heated at 70° C. for 24 h, after that a further 10 mg NaCNBH₃ was added and the reaction was heated at 70° C. for another 24 h. After cooling to room temperature, the mixture was desalted with the spin column (3,000 molecular weight cut off (MWCO)). Biotinylated ActRIIBecd was collected, freeze-dried and used for streptavidin (SA) chip preparation. Amino-biotinylated ActRIIBecd was then immobilized independently on flow cells 2-4 for 10 minutes at a flow rate of 5 μL/min and a concentration of 20 μM in 10 mM sodium acetate, pH 4.0, at a density of 50-250 resonance units (RU). The stored polypeptides were dissolved in glycine buffer (2.5 g of glycine, 0.5 g of sucrose, 370 mg of L-glutamate, 10 mg of sodium chloride, and 10 mg of Tween 80 in 100 mL water, pH 4.5) to prepare 10 mg/mL solution and then diluted with previous glycine buffer to prepare analytes with various concentration. Sensograms were recorded during flow of the analyte (the ActRIIBecd-associated polypeptides (i.e., domains) as previously described) first through flow cell 1 (control) then through flow cell 2 (biotinylated ActRIIBecd). The sensogram obtained for flow cell 1 was subtracted from the sensogram obtained for flow cell 2. The sensograms obtained at 1.11, 3.33, 10, 30, and 90 nM analyte were evaluated for equilibrium binding, association rate, and dissociation rate by using the programs supplied with the instrument (BIA evaluation 2.1; Software Handbook. 1995; Pharmacia Biosensor AB).

[3] = biological target: T1, extracellular domain of activin …; assay: BIAcore SPR, biotinylated ActRIIBecd on chip; SD ±14.11 nM
Experimental: as §1

[4] = biological target: T1, extracellular domain of activin …; assay: BIAcore SPR as Example 5 (method not restated); SD ±1.37 nM
Experimental: as §1

[5] = biological target: T1, extracellular domain of activin …; assay: BIAcore SPR as Example 5 (method not restated); SD ±3.15 nM
Experimental: as §1

[6] = biological target: T1, extracellular domain of activin …; assay: BIAcore SPR as Example 5 (method not restated); SD ±1.35 nM
Experimental: as §1

[7] = biological target: T1, extracellular domain of activin …; assay: BIAcore SPR as Example 5 (method not restated); SD ±1.77 nM
Experimental: as §1

[8] = biological target: T1, extracellular domain of activin …; assay: BIAcore SPR as Example 5 (method not restated); SD ±2.10 nM
Experimental: as §1

[9] = biological target: T1, extracellular domain of activin …; assay: BIAcore SPR as Example 5 (method not restated); SD ±1.07 nM
Experimental: as §1

Kd [1]: 0.0175 µM
Kd [2]: 0.0175 µM
B1: SEQ ID NO: 254, cysteine pairs C23-C27^a, C58-C91^a, C59-C93^a (designed binder)
chain: VDFKDVGWNDHAVAPPGYHAFYCHGECPFPLADHLNSDNHAIVQTKVNSVNSKDPKACCVPTELSAPSPLYLDENEKPVLKNYQDMVVHGCGCR
modifications: disulfides C23-C27 (intra), C58-C91 (intra), C59-C93 (intra)

Kd [3]: 0.0395 µM
Binder: VDFSDVGWNDWIVAPPGYHAFYCHGECPFPLADHLNSTNHAIVQTLVNSV [Clone No. 15 domain (ActRIIBecd-associated polypeptide)]

Kd [2]: 0.00534 µM
Kd [4]: 0.00534 µM
B2: SEQ ID NO: 316, cysteine pairs C67-C71^a, C8-C41^a, C9-C43^a, C109-C109^b (designed binder)
chain: NSKDPKACCVPTELSAPSPLYLDENEKPVLKNYQDMVVHGCGCRVDFKDVGWNDHAVAPPGYHAFYCHGECPFPLADHLNSDNHAIVQTKVNSVGQAKRKGYKRLKSSCKRHPLY
modifications: disulfides C67-C71 (intra), C8-C41 (intra), C9-C43 (intra), C109-C109 (inter)
notes: homodimer by intermolecular disulfide

Kd [2]: 0.00619 µM
Kd [4]: 0.00619 µM
B3: SEQ ID NO: 292, cysteine pairs C80-C114^a, C79-C112^a, C44-C48^a (designed binder)
chain: GQAKRKGYKRLKSSCKRHPLYVDFKDVGWNDHAVAPPGYHAFYCHGECPFPLADHLNSDNHAIVQTKVNSVNSKDPKACCVPTELSAPSPLYLDENEKPVLKNYQDMVVHGCGCR
modifications: disulfides C80-C114 (intra), C79-C112 (intra), C44-C48 (intra)

Kd [2]: 0.0318 µM
Kd [5]: 0.0318 µM
B4: SEQ ID NO: 284, cysteine pairs C8-C9^a (designed binder)
chain: NSKIPKACCVPTELSAISMLYLDENEKVVLKNYQDMVVEGCGCRAQAKHKQRKRLKSSCKRHPLYVDFSDVGWNDWIVAPPGYHAFYCHGECPFPLADHLNSTNHAIVQTLVNSV
modifications: disulfides C8-C9 (intra)

Kd [6]: 0.00688 µM
Kd [2]: 0.00688 µM
B5: SEQ ID NO: 284, cysteine pairs C59-C59^b, C8-C43^a, C9-C41^a, C88-C92^a (designed binder)
chain: NSKIPKACCVPTELSAISMLYLDENEKVVLKNYQDMVVEGCGCRAQAKHKQRKRLKSSCKRHPLYVDFSDVGWNDWIVAPPGYHAFYCHGECPFPLADHLNSTNHAIVQTLVNSV
modifications: disulfides C59-C59 (inter), C8-C43 (intra), C9-C41 (intra), C88-C92 (intra)
notes: as for B2

Kd [7]: 0.00813 µM
Kd [2]: 0.00813 µM
B6: SEQ ID NO: 276, cysteine pairs C67-C71^a, C8-C41^b, C9-C43^b, C109-C109^b (designed binder)
chain: NSKIPKACCVPTELSAISMLYLDENEKVVLKNYQDMVVEGCGCRVDFSDVGWNDWIVAPPGYHAFYCHGECPFPLADHLNSTNHAIVQTLVNSVAQAKHKQRKRLKSSCKRHPLY
modifications: disulfides C67-C71 (intra), C8-C41 (inter), C9-C43 (inter), C109-C109 (inter)
notes: as for B2

Kd [2]: 0.0487 µM
Kd [5]: 0.0487 µM
B7: SEQ ID NO: 242, cysteine pairs C29-C30^a (designed binder)
chain: GQAKRKGYKRLKSSCKRHPLYNSKDPKACCVPTELSAPSPLYLDENEKPVLKNYQDMVVHGCGCR
modifications: disulfide 29-30

Kd [8]: 0.0162 µM
Kd [2]: 0.0162 µM
B8: SEQ ID NO: 236, cysteine pairs C59-C59^b, C8-C41^a, C9-C43^a (designed binder)
chain: NSKDPKACCVPTELSAPSPLYLDENEKPVLKNYQDMVVHGCGCRGQAKRKGYKRLKSSCKRHPLY
modifications: disulfide 8-41, 9-43; also: homodimer via intermolecular C59-C59 disulfide
notes: as for B2

Kd [9]: 0.0051 µM
Kd [2]: 0.0051 µM
B9: SEQ ID NO: 348, cysteine pairs C15-C15^b, C29-C62^a, C30-C64^a, C88-C92^a (designed binder)
chain: GQAKRKGYKRLKSSCKRHPLYNSKIPKACCVPTELSAISMLYLDENEKVVLKNYQDMVVEGCGCRVDFSDVGWNDWIVAPPGYHAFYCHGECPFPLADHLNSTNHAIVQTLVNSV
modifications: disulfides C15-C15 (inter), C29-C62 (intra), C30-C64 (intra), C88-C92 (intra)
notes: as for B2

Kd [1]: 0.0185 µM
Kd [2]: 0.0185 µM
B10: SEQ ID NO: 248, cysteine pairs C67-C71^a, C8-C41^a, C9-C43^a (designed binder)
chain: NSKDPKACCVPTELSAPSPLYLDENEKPVLKNYQDMVVHGCGCRVDFKDVGWNDHAVAPPGYHAFYCHGECPFPLADHLNSDNHAIVQTKVNSV
modifications: disulfides C67-C71 (intra), C8-C41 (intra), C9-C43 (intra)
